Test results: the supplement of paper PMC9112550, “Optimization of the antimicrobial peptide Bac7 by deep mutational scanning” (BMC Biology, 2022)

Test system: Escherichia coli TOP10
Test: shrunken log2 fold change of peptide-encoding DNA abundance (4.5 h post-induction vs induction); higher = less antimicrobial activity (less host growth inhibition)
Settings: time post-induction: 4.5 h; library: site-saturation at positions 5, 18, 19, 20
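Also: peptides expressed intracellularly from a pBAD plasmid library in pooled LB shake-flask culture, induced with 0.3% L-arabinose, DNA abundance read by NGS, three biological replicates, DESeq2 with apeglm shrinkage.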

Sequence | shrunken log2 fold change
RRIRNRPPRLPRPRPRPFEHPRP | 0.0659
RRIRERPPRLPRPRPRPDTAPRP | -0.131
RRIRMRPPRLPRPRPRPTNSPRP | -0.302
RRIRFRPPRLPRPRPRPFNQPRP | -0.161
RRIRHRPPRLPRPRPRPTAMPRP | 0.148
RRIRYRPPRLPRPRPRPPDHPRP | 0.0391
RRIRARPPRLPRPRPRPKPPPRP | 0.959
RRIRHRPPRLPRPRPRPKAKPRP | 0.00599
RRIRMRPPRLPRPRPRPQCAPRP | 0.645
RRIRMRPPRLPRPRPRPFYFPRP | -0.569
RRIRNRPPRLPRPRPRPIVMPRP | -0.0105
RRIRLRPPRLPRPRPRPLCDPRP | -0.284
RRIRIRPPRLPRPRPRPVHYPRP | -0.497
RRIRGRPPRLPRPRPRPDFLPRP | 0.318
RRIRPRPPRLPRPRPRPLYPPRP | -0.244
RRIRFRPPRLPRPRPRPNSSPRP | -0.247
RRIRGRPPRLPRPRPRPSYNPRP | 0.0742
RRIRRRPPRLPRPRPRPQMHPRP | 0.354
RRIRWRPPRLPRPRPRPAATPRP | 2.26
RRIRARPPRLPRPRPRPIWYPRP | -0.147
RRIRKRPPRLPRPRPRPVCNPRP | -0.148
RRIRVRPPRLPRPRPRPNCIPRP | -0.213
RRIRHRPPRLPRPRPRPFVMPRP | -0.281
RRIRARPPRLPRPRPRPPECPRP | 0.327
RRIRQRPPRLPRPRPRPAPVPRP | 1.06

Sequence | shrunken log2 fold change
RRIRDRPPRLPRPRPRPGQHPRP | -0.121
RRIRHRPPRLPRPRPRPHWEPRP | -0.211
RRIRQRPPRLPRPRPRPIPVPRP | -0.221
RRIRGRPPRLPRPRPRPLHKPRP | 0.714
RRIRYRPPRLPRPRPRPTKEPRP | -0.00889
RRIRIRPPRLPRPRPRPRAIPRP | -0.356
RRIRKRPPRLPRPRPRPHHQPRP | 0.00598
RRIRCRPPRLPRPRPRPCCWPRP | 0.103
RRIRFRPPRLPRPRPRPKQIPRP | -0.218
RRIRKRPPRLPRPRPRPSMDPRP | 0.0069
RRIRSRPPRLPRPRPRPANSPRP | -0.564
RRIRGRPPRLPRPRPRPPQAPRP | 1.58
RRIRKRPPRLPRPRPRPDKPPRP | 0.128
RRIRCRPPRLPRPRPRPITPPRP | -0.219
RRIRNRPPRLPRPRPRPQAMPRP | -0.0233
RRIRLRPPRLPRPRPRPHSGPRP | -0.0238
RRIRDRPPRLPRPRPRPYTDPRP | 0.0446
RRIRARPPRLPRPRPRPEPTPRP | 0.832
RRIRDRPPRLPRPRPRPPMPPRP | 0.203
RRIRSRPPRLPRPRPRPSMRPRP | 0.369
RRIRDRPPRLPRPRPRPSRPPRP | 0.452
RRIRKRPPRLPRPRPRPCEWPRP | -0.0222
RRIRFRPPRLPRPRPRPDIWPRP | -0.273
RRIRGRPPRLPRPRPRPQALPRP | 0.135
RRIRMRPPRLPRPRPRPSWAPRP | 0.203

Sequence | shrunken log2 fold change
RRIRMRPPRLPRPRPRPKRGPRP | -0.0058
RRIRKRPPRLPRPRPRPKTRPRP | 0.444
RRIRMRPPRLPRPRPRPAADPRP | 2.81
RRIRIRPPRLPRPRPRPICWPRP | 0.307
RRIRKRPPRLPRPRPRPEGWPRP | 1.46
RRIRMRPPRLPRPRPRPSHQPRP | -0.0291
RRIRARPPRLPRPRPRPATQPRP | 0.437
RRIRPRPPRLPRPRPRPAGGPRP | 0.269
RRIRQRPPRLPRPRPRPDYAPRP | -0.00674
RRIRMRPPRLPRPRPRPGTSPRP | 0.24
RRIRGRPPRLPRPRPRPWSEPRP | 0.127
RRIRGRPPRLPRPRPRPTGKPRP | 0.899
RRIRGRPPRLPRPRPRPGLQPRP | 0.236
RRIRQRPPRLPRPRPRPTSYPRP | -0.154
RRIRDRPPRLPRPRPRPSSDPRP | 0.412
RRIRFRPPRLPRPRPRPMEQPRP | -0.00146
RRIRTRPPRLPRPRPRPVGLPRP | -0.00734
RRIRFRPPRLPRPRPRPEDLPRP | 0.143
RRIRPRPPRLPRPRPRPAFWPRP | 0.459
RRIRCRPPRLPRPRPRPGAMPRP | 0.319
RRIRIRPPRLPRPRPRPSWHPRP | -0.707
RRIRKRPPRLPRPRPRPYKYPRP | -0.00882
RRIRARPPRLPRPRPRPYKDPRP | -0.348
RRIRWRPPRLPRPRPRPVCMPRP | 0.193
RRIRSRPPRLPRPRPRPSLLPRP | -0.146

Sequence | shrunken log2 fold change
RRIRIRPPRLPRPRPRPGALPRP | -0.111
RRIRSRPPRLPRPRPRPFKRPRP | -0.013
RRIRHRPPRLPRPRPRPGGIPRP | -0.092
RRIRHRPPRLPRPRPRPPPHPRP | 0.703
RRIRPRPPRLPRPRPRPKLKPRP | 0.105
RRIRTRPPRLPRPRPRPPEYPRP | 0.0238
RRIRKRPPRLPRPRPRPYFIPRP | -0.515
RRIRFRPPRLPRPRPRPTHHPRP | 0.781
RRIRERPPRLPRPRPRPPNHPRP | -0.288
RRIRHRPPRLPRPRPRPNVEPRP | -0.063
RRIRHRPPRLPRPRPRPLRTPRP | 1.02
RRIRVRPPRLPRPRPRPHEWPRP | -0.276
RRIRARPPRLPRPRPRPICVPRP | 0.154
RRIRGRPPRLPRPRPRPHATPRP | 1.35
RRIRCRPPRLPRPRPRPPYCPRP | -0.365
RRIRNRPPRLPRPRPRPIWLPRP | 0.0648
RRIRNRPPRLPRPRPRPFVVPRP | -0.676
RRIRHRPPRLPRPRPRPTFEPRP | 0.0452
RRIRPRPPRLPRPRPRPCTDPRP | -0.0332
RRIRNRPPRLPRPRPRPLNVPRP | -0.0912
RRIRNRPPRLPRPRPRPSYTPRP | -1.13
RRIRCRPPRLPRPRPRPFHHPRP | -0.00672
RRIRSRPPRLPRPRPRPHCDPRP | -0.38
RRIRIRPPRLPRPRPRPPNFPRP | -0.108
RRIRWRPPRLPRPRPRPICAPRP | 0.291

Sequence | shrunken log2 fold change
RRIRWRPPRLPRPRPRPDKVPRP | 0.0749
RRIRFRPPRLPRPRPRPTFWPRP | -0.0559
RRIRCRPPRLPRPRPRPFMEPRP | -0.996
RRIRHRPPRLPRPRPRPYDAPRP | -0.271
RRIRRRPPRLPRPRPRPQCCPRP | 0.49
RRIRDRPPRLPRPRPRPPFSPRP | 0.0121
RRIRKRPPRLPRPRPRPADMPRP | 0.399
RRIRPRPPRLPRPRPRPSNAPRP | 0.055
RRIRWRPPRLPRPRPRPSTCPRP | -0.457
RRIRIRPPRLPRPRPRPWDAPRP | -0.00869
RRIRVRPPRLPRPRPRPHWIPRP | -0.512
RRIRIRPPRLPRPRPRPMMSPRP | -0.00118
RRIRGRPPRLPRPRPRPDTAPRP | 1
RRIRWRPPRLPRPRPRPGFDPRP | 0.517
RRIRSRPPRLPRPRPRPRIDPRP | 0.0938
RRIRARPPRLPRPRPRPAFMPRP | 0.525
RRIRCRPPRLPRPRPRPCMLPRP | -0.758
RRIRIRPPRLPRPRPRPRPCPRP | -0.0531
RRIRDRPPRLPRPRPRPEVTPRP | -0.000921
RRIRMRPPRLPRPRPRPLSPPRP | 0.345
RRIRIRPPRLPRPRPRPKSCPRP | -0.0687
RRIRERPPRLPRPRPRPNLCPRP | -0.13
RRIRARPPRLPRPRPRPFSSPRP | -0.159
RRIRRRPPRLPRPRPRPERCPRP | 0.322
RRIRVRPPRLPRPRPRPMWHPRP | 0.0166
